Experimental data: US20240150484A1

Columns and labels:
[1] = molecular target: FcγRIIIa on natural killer cells in human PBMC (human) (UniProt P08637); experiment: cell-based or functional assay
[2] = molecular target: His-tagged biotinylated human FcγRIIIa allotype 158V monomeric ECD (Sino Biological) (human) (UniProt P08637); experiment: BLI, steady state; responses did not reach a plateau
[3] = molecular target: His-tagged murine FcγRI monomeric ECD (Sino Biological) (murine) (UniProt P26151); experiment: BLI, FcγR on Ni-NTA sensor, 1:1 global fit
[4] = molecular target: His-tagged biotinylated murine FcγRIV monomeric ECD (Sino Biological) (murine); experiment: BLI
[5] = molecular target: His-tagged human FcγRIa monomeric ECD (Sino Biological) (human) (UniProt P12314); experiment: BLI, 1:1 global fit; analysis not optimal, <4 fits
[6] = molecular target: His-tagged biotinylated murine FcγRIV monomeric ECD (Sino Biological) (murine); experiment: BLI, steady state; responses did not reach a plateau
[7] = molecular target: His-tagged biotinylated human FcγRIIIa allotype 158V monomeric ECD (Sino Biological) (human) (UniProt P08637); experiment: as above; remark: listed apart in the source
[8] = molecular target: His-tagged murine FcγRI monomeric ECD (Sino Biological) (murine) (UniProt P26151); experiment: BLI
[9] = molecular target: His-tagged murine FcγRI monomeric ECD (Sino Biological) (murine) (UniProt P26151); experiment: BLI, 1:1 global fit; analysis not optimal, <4 fits
[10] = molecular target: His-tagged human FcγRIa monomeric ECD (Sino Biological) (human) (UniProt P12314); experiment: BLI, FcγR on Ni-NTA sensor, 1:1 global fit
[11] = molecular target: His-tagged cynomolgus FcγRI monomeric ECD (R&D Systems) (cynomolgus (Macaca fascicularis)); experiment: BLI, FcγR on Ni-NTA sensor, 1:1 global fit
[12] = molecular target: His-tagged biotinylated cynomolgus FcγRIIa monomeric ECD (Sino Biological) (cynomolgus (Macaca fascicularis)); experiment: BLI, FcγR on SA sensor, steady state
[13] = molecular target: His-tagged biotinylated murine FcγRIV monomeric ECD (Sino Biological) (murine); experiment: BLI, FcγR on SA sensor, steady state
[14] = molecular target: His-tagged biotinylated human FcγRIIIa allotype 158V monomeric ECD (Sino Biological) (human) (UniProt P08637); experiment: BLI, FcγR on SA sensor, steady state
[15] = molecular target: His-tagged biotinylated cynomolgus FcγRIIb monomeric ECD (Sino Biological) (cynomolgus (Macaca fascicularis)); experiment: BLI, FcγR on SA sensor, steady state
[16] = molecular target: His-tagged biotinylated murine FcγRIIb monomeric ECD (Sino Biological) (murine) (UniProt P08101); experiment: BLI, FcγR on SA sensor, steady state
[17] = molecular target: His-tagged biotinylated murine FcγRIII monomeric ECD (Sino Biological) (murine) (UniProt P08508); experiment: BLI, FcγR on SA sensor, steady state
[18] = molecular target: His-tagged biotinylated cynomolgus FcγRIII monomeric ECD (ACROBiosystems) (cynomolgus (Macaca fascicularis)) (UniProt Q8SPW2); experiment: BLI, FcγR on SA sensor, steady state
[19] = molecular target: His-tagged biotinylated human FcγRIIa allotype 131H monomeric ECD (Sino Biological) (human) (UniProt P12318); experiment: BLI, FcγR on SA sensor, steady state
[20] = molecular target: His-tagged biotinylated human FcγRIIb monomeric ECD (Sino Biological) (human) (UniProt P31994); experiment: BLI, FcγR on SA sensor, steady state
Chain of His-tagged biotinylated human FcγRIIb monomeric ECD (Sino Biological) (human) (P31994 43-217): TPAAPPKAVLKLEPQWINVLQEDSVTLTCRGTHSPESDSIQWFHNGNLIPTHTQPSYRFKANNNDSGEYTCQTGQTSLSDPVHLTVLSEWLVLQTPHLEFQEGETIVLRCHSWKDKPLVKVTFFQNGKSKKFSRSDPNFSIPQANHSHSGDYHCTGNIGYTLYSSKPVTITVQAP

Chain of His-tagged biotinylated murine FcγRIV monomeric ECD (Sino Biological) (murine) (A0A0B4 entry or part of it limits assumed): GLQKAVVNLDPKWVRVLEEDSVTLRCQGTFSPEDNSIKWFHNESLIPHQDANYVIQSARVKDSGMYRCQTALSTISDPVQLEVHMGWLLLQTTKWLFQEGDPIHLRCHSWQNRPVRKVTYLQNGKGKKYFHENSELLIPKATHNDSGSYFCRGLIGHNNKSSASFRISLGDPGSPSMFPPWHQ
Chain of His-tagged murine FcγRI monomeric ECD (Sino Biological) (murine) (P26151 25-297): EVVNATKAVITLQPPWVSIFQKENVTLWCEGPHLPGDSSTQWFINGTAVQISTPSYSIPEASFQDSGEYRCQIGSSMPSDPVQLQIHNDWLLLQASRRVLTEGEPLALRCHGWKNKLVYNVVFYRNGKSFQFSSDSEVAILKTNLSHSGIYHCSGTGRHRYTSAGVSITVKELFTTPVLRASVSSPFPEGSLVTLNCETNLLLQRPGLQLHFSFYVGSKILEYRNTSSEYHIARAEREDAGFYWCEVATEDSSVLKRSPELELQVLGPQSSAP
Chain of His-tagged biotinylated human FcγRIIIa allotype 158V monomeric ECD (Sino Biological) (human) (P08637 17-208 F176V): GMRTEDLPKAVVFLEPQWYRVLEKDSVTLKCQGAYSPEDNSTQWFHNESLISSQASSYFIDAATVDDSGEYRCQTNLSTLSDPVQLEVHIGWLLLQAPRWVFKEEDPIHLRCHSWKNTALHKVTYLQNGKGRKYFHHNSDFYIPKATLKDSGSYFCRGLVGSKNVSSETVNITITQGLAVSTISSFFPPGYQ
Chain of His-tagged human FcγRIa monomeric ECD (Sino Biological) (human) (P12314 16-292): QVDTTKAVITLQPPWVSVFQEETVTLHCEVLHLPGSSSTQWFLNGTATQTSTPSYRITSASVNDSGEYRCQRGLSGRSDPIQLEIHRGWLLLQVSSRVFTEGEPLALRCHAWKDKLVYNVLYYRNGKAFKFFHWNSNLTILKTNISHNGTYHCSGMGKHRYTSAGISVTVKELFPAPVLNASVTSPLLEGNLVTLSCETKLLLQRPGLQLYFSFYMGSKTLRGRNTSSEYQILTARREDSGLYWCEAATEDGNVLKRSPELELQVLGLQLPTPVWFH
Chain of His-tagged biotinylated murine FcγRIIb monomeric ECD (Sino Biological) (murine) (P08101 30-210): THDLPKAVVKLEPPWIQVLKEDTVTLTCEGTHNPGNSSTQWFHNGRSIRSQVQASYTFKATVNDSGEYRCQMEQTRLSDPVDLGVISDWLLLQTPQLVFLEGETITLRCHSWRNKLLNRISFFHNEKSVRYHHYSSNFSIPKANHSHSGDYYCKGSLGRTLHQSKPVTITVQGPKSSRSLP
Chain of His-tagged biotinylated murine FcγRIII monomeric ECD (Sino Biological) (murine) (P08508 31-215): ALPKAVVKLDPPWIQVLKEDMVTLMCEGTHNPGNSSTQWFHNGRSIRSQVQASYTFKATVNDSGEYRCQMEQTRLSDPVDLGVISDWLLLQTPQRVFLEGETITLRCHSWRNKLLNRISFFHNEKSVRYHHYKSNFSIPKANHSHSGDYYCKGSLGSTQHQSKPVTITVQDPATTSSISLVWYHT
Chain of His-tagged biotinylated cynomolgus FcγRIII monomeric ECD (ACROBiosystems) (cynomolgus (Macaca fascicularis)) (Q8SPW2 17-208): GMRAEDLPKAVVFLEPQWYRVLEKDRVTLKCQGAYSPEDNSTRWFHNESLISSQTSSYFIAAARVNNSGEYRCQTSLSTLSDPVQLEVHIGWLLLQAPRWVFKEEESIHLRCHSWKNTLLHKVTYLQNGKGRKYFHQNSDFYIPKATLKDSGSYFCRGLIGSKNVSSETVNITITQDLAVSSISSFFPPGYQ
Chain of FcγRIIIa on natural killer cells in human PBMC (human) (P08637 17-254): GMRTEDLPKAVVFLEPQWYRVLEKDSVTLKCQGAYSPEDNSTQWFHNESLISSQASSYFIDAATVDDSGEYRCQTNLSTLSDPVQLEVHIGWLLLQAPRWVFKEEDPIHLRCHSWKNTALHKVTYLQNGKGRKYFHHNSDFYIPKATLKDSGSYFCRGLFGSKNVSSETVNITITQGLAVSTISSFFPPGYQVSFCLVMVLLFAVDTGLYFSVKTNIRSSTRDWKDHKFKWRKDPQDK
Chain of His-tagged biotinylated human FcγRIIa allotype 131H monomeric ECD (Sino Biological) (human) (P12318 34-217): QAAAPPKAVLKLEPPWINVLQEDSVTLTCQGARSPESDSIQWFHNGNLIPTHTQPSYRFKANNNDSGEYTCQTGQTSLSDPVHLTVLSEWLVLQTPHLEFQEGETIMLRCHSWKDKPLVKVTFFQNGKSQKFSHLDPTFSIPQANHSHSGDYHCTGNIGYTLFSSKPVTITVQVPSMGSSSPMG

## anti-human CD20 IgG1-L234F-L235E-G236R-K409R (antibody)
[1]
  reduction of ADCC of Raji cells: 69%

## murine anti-human CD20 IgG2a-L234A-L235A (antibody)
[2]
  Kd: 13800 nM
[3]
  Kd: 238 nM
  koff: 0.00231 s⁻¹
  kon: 9730 M⁻¹ s⁻¹
[4]
  fold reduction vs wt IgG2a: 100 fold
[5]
  Kd: 3610 nM
  koff: 0.0163 s⁻¹
  kon: 4530 M⁻¹ s⁻¹
[6]
  Kd: 13800 nM
[7]
  Kd: 11700 nM

## murine anti-human CD20 IgG2a-L234A-L235A-P329G (antibody)
[8]
  fold reduction of binding affinity vs wild-type IgG2a: 100 fold
[9]
  Kd: 364 nM
  koff: 0.002 s⁻¹
  kon: 5500 M⁻¹ s⁻¹

## murine anti-human CD20 IgG2a-L234F-L235E-G236R (antibody)
[8]
  fold reduction of binding affinity vs wild-type IgG2a: 100 fold
[9]
  Kd: 430 nM
  koff: 0.00227 s⁻¹
  kon: 5300 M⁻¹ s⁻¹

## wild-type anti-human CD20 IgG1 antibody (IgG1-CD20)
[3]
  Kd: 124 nM
[10]
  Kd: 1.84 nM
[11]
  Kd: 0.626 nM
[12]
  Kd: 4250 nM
[13]
  Kd: 1040 nM
[14]
  Kd: 565 nM
[15]
  Kd: 3900 nM
[16]
  Kd: 2850 nM
[17]
  Kd: 7450 nM
[18]
  Kd: 415 nM

## wild-type murine anti-human CD20 IgG2a antibody
[3]
  Kd: 3.82 nM
  koff: 0.000619 s⁻¹
  kon: 162000 M⁻¹ s⁻¹
[10]
  Kd: 1.27 nM
  koff: 0.00039 s⁻¹
  kon: 311000 M⁻¹ s⁻¹
[13]
  Kd: 145 nM
[14]
  Kd: 1950 nM
[16]
  Kd: 6400 nM
[17]
  Kd: 6900 nM
[19]
  Kd: 1850 nM
[20]
  Kd: 17000 nM
